Experimental findings from article doi:10.1101/2023.04.08.536109 are described below.

This assay addresses Sulfolobus acidocaldarius GPN-loop GTPase Saci1281 (SaGPN) (Sulfolobus acidocaldarius). The assay can be described thus: SEC.

Consider “Sulfolobus acidocaldarius GPN-loop GTPase Saci1281 (SaGPN) (enzyme)”, for which the stoichiometry N came to 2.
